Here are results for 50 sequences from the supplement of paper PMC9112550, “Optimization of the antimicrobial peptide Bac7 by deep mutational scanning” (BMC Biology, 2022).
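Further: peptides expressed intracellularly from a pBAD plasmid library in pooled LB shake-flask culture, induced with 0.3% L-arabinose, DNA abundance read by NGS, three biological replicates, DESeq2 with apeglm shrinkage.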

This series has as its system Escherichia coli TOP10. Nature of the series: shrunken log2 fold change of peptide-encoding DNA abundance (4.5 h post-induction vs induction); higher = less antimicrobial activity (less host growth inhibition). The following applies: time post-induction: 4.5 h; library: site-saturation at positions 5, 18, 19, 20.
In the case of RRIRSRPPRLPRPRPRPVAGPRP, the “shrunken log2 fold change” value worked out at 0.0927.
Regarding RRIRKRPPRLPRPRPRPALQPRP, the “shrunken log2 fold change” value was found to be 0.493.
For RRIRDRPPRLPRPRPRPMHGPRP, the “shrunken log2 fold change” value is -0.123.
For the sequence RRIRRRPPRLPRPRPRPVRHPRP, the “shrunken log2 fold change” value is 0.247.
For RRIRRRPPRLPRPRPRPHYRPRP the value was -0.306; for RRIRKRPPRLPRPRPRPNYCPRP, -0.0369.
Consider RRIRDRPPRLPRPRPRPAIAPRP, for which the “shrunken log2 fold change” value amounted to 0.878.
For RRIRLRPPRLPRPRPRPAPDPRP the value was 0.215.
In the case of RRIRGRPPRLPRPRPRPKGKPRP it was 1.16.
Consider RRIRGRPPRLPRPRPRPHISPRP, for which the “shrunken log2 fold change” value was -0.0962.
With RRIRERPPRLPRPRPRPRVNPRP, the “shrunken log2 fold change” value was -0.157.
As for RRIRVRPPRLPRPRPRPNSWPRP, the “shrunken log2 fold change” value came to 0.0957.
For RRIRARPPRLPRPRPRPLQIPRP the value was 0.0194; for RRIRNRPPRLPRPRPRPHTLPRP, -0.39.
In the case of RRIRCRPPRLPRPRPRPGWTPRP it was 0.0289.
For RRIRERPPRLPRPRPRPGDRPRP, the “shrunken log2 fold change” value was found to be 0.172.
For RRIRTRPPRLPRPRPRPHFHPRP the value was -0.589; for RRIRTRPPRLPRPRPRPTLLPRP, 0.0818; for RRIRIRPPRLPRPRPRPHSVPRP, -0.0376.
Take RRIRWRPPRLPRPRPRPYALPRP: the “shrunken log2 fold change” value was 0.0509.
Turning to RRIRQRPPRLPRPRPRPNHEPRP, the “shrunken log2 fold change” value is -0.102.
In the case of RRIRDRPPRLPRPRPRPDMIPRP it was 0.0954; in that of RRIRRRPPRLPRPRPRPPRCPRP, 1.49.
For RRIRDRPPRLPRPRPRPLPYPRP the value was -0.0311.
For RRIRCRPPRLPRPRPRPCYEPRP the value was -0.663; for RRIRPRPPRLPRPRPRPWYVPRP, -0.369.
With RRIRHRPPRLPRPRPRPNRMPRP, the “shrunken log2 fold change” value turned out to be 0.0166.
For RRIRNRPPRLPRPRPRPYWLPRP the value was -0.55; for RRIRYRPPRLPRPRPRPDYQPRP, 0.0202; for RRIRPRPPRLPRPRPRPNRTPRP, -0.0847.
In the case of RRIRRRPPRLPRPRPRPRRPPRP it was 0.639; in that of RRIRHRPPRLPRPRPRPIPMPRP, -0.0582; in that of RRIRNRPPRLPRPRPRPSGDPRP, -0.252.
As for RRIRRRPPRLPRPRPRPRYDPRP, the “shrunken log2 fold change” value came out at 0.0442.
Take RRIRRRPPRLPRPRPRPDPKPRP: the “shrunken log2 fold change” value is 0.304.
In the case of RRIRPRPPRLPRPRPRPKASPRP, the “shrunken log2 fold change” value stood at 0.105.
For RRIRYRPPRLPRPRPRPHKYPRP the value was -1.08; for RRIRYRPPRLPRPRPRPYCSPRP, -0.00208; for RRIRMRPPRLPRPRPRPYHVPRP, -0.065.
In the case of RRIRVRPPRLPRPRPRPELFPRP it was 0.181; in that of RRIRWRPPRLPRPRPRPSRDPRP, 0.479; in that of RRIRARPPRLPRPRPRPDVSPRP, 0.106.
Consider RRIRERPPRLPRPRPRPVAIPRP, for which the “shrunken log2 fold change” value was -0.121.
For RRIRRRPPRLPRPRPRPIRLPRP the value was -0.104.
In the case of RRIRCRPPRLPRPRPRPDNKPRP, the “shrunken log2 fold change” value is -0.795.
In the case of RRIRYRPPRLPRPRPRPYWYPRP it was -0.322; in that of RRIRMRPPRLPRPRPRPVPQPRP, 0.7.
For RRIRVRPPRLPRPRPRPGHIPRP the value was -0.028; for RRIRCRPPRLPRPRPRPCQFPRP, -0.0777; for RRIRFRPPRLPRPRPRPMGSPRP, -0.22.
